Here are results for four molecules from article PMC9482650, “Quantitative fragmentomics allow affinity mapping of interactomes” (Nature Communications, 2022).

Targets include AHNAK2, Q8IVF2; GRIP2_2, Q9C0E4; LIMK1, P53667; MAGI1_3, Q96QZ7; MAGI1_4, Q96QZ7; MAGI3_3, Q5TCQ9; NHERF2_1, Q15599; PDZD9, Q8IXQ8; PREX1_1, Q8TCU6; SCRIB_4, Q14160.
Common to all, as to experiment: holdup assay
What all share (set-up): key: below the threshold = too weak to quantify, mostly under pKd 3.1 to 4

The target in the next assay is T1, APBA3_2, O96018.
T1 sequence (O96018 480-570, limits assumed, looked up): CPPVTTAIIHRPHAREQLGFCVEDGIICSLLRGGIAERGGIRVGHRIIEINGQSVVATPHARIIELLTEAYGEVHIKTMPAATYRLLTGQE

In another assay the target is T2, MPDZ_3, O75970.
T2 sequence (O75970 372-473, limits assumed, looked up): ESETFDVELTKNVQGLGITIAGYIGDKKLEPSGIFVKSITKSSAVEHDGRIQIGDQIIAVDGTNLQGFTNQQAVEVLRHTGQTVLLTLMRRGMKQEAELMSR

The target in a further assay is T3, MPP5, Q8N3R9.
T3 sequence (Q8N3R9 251-346, limits assumed, looked up): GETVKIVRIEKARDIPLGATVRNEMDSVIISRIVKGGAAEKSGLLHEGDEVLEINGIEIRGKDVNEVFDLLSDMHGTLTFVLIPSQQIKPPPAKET

A further assay addresses T4, PARD6B, Q9BYG5.
T4 sequence (Q9BYG5 152-260, limits assumed, looked up): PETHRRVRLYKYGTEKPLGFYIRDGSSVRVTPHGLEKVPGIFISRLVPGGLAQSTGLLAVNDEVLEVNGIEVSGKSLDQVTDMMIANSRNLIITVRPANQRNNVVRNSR

Another assay deals with T5, PARD6G, Q9BYG4.
T5 sequence (Q9BYG4 153-261, limits assumed, looked up): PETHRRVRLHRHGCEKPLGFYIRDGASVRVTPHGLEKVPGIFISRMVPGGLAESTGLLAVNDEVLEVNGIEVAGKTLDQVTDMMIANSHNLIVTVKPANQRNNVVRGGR

The target of the next assay is T6, PDZD2_3, O15018.
T6 sequence (O15018 581-682, limits assumed, looked up): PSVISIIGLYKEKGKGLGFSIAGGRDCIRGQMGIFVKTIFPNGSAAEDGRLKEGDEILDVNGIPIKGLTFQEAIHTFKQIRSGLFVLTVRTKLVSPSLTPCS

In another assay the target is T7, PDZD8, Q8NEN9.
T7 sequence (Q8NEN9 361-459, limits assumed, looked up): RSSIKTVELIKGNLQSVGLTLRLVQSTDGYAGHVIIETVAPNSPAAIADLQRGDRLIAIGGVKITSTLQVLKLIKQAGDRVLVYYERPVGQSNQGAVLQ

Another assay concerns the target T8, PDZRN3_2, Q9UPQ7.
T8 sequence (Q9UPQ7 414-513, limits assumed, looked up): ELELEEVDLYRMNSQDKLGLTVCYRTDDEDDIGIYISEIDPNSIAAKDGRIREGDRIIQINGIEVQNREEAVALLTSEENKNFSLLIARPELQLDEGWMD

The target of a further assay is T9, PREX2_2, Q70Z35.
T9 sequence (Q70Z35 672-764, limits assumed, looked up): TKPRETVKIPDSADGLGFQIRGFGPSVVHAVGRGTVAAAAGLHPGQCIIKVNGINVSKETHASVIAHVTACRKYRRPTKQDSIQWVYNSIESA

For another assay, the target named is T10, SHANK2, Q9UPX8.
T10 sequence (Q9UPX8 621-730, limits assumed, looked up): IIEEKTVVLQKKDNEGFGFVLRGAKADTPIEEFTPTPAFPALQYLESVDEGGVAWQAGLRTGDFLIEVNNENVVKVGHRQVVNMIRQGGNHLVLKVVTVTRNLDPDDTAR

Another assay has as its target T11, SHANK3, Q9BYB0.
T11 sequence (Q9BYB0 641-750, limits assumed, looked up): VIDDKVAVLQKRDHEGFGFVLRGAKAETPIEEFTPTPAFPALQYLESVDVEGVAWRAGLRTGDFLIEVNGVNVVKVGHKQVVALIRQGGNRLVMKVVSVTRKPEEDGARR

A further assay addresses T12, SHROOM2, Q13796.
T12 sequence (Q13796 21-118, limits assumed, looked up): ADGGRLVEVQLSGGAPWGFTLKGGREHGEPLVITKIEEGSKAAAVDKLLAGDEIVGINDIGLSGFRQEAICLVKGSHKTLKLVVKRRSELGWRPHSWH

The target of a further assay is T13, SNTA1, Q13424.
T13 sequence (Q13424 82-180, limits assumed, looked up): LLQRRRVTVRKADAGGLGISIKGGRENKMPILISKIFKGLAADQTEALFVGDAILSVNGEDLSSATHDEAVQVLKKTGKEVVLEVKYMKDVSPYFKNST

The mark [1] stands for this setting: plain residues with an end cap or a label only (N-terminal biotin on a linker: none).
[2] abbreviates: plain residues with an end cap or a label only (N-terminal biotin on a linker: ttds).

Chain of MAGI1_3, Q96QZ7 (Q96QZ7 638-725): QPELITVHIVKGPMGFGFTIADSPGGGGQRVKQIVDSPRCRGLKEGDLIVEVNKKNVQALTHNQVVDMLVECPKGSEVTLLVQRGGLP
Chain of PREX1_1, Q8TCU6 (Q8TCU6 608-718): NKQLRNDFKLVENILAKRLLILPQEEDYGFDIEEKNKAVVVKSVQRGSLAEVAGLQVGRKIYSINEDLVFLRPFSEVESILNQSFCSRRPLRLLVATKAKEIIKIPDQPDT
Chain of SCRIB_4, Q14160 (Q14160 1095-1204): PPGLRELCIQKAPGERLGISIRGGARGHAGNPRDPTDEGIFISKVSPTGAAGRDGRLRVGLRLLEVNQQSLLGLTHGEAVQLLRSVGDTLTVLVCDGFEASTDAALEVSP
Chain of NHERF2_1, Q15599 (Q15599 9-91): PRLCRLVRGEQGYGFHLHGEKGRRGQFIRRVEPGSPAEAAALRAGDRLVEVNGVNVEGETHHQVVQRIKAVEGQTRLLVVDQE
Chain of MAGI1_4, Q96QZ7 (Q96QZ7 other isoform, or with tags, fused parts or gaps): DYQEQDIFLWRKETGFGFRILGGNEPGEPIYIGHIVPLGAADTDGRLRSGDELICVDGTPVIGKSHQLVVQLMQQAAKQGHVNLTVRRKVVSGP
Chain of LIMK1, P53667 (P53667 155-268): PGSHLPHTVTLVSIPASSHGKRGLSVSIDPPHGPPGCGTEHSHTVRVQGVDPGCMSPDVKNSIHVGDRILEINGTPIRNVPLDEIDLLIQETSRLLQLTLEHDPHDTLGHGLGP
Chain of MAGI3_3, Q5TCQ9 (Q5TCQ9 572-655): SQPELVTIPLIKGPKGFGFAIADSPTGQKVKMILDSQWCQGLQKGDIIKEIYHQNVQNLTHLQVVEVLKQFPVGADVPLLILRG
Chain of GRIP2_2, Q9C0E4 (Q9C0E4 137-245): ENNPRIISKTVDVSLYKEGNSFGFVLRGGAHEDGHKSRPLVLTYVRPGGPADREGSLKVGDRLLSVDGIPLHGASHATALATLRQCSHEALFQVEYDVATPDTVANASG
Chain of PDZD9, Q8IXQ8 (Q8IXQ8 23-120): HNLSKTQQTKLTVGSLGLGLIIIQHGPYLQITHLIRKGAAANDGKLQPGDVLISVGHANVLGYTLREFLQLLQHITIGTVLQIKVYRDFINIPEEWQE
Chain of AHNAK2, Q8IVF2 (Q8IVF2 108-193): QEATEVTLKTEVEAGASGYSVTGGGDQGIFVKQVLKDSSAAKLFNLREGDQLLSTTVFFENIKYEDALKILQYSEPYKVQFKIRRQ

B1: SARS-CoV2-E, P0DTC4 (peptide)
chain: NLNSSRVPDLLV
Regarding B1, the pKd entry in the assay with AHNAK2, Q8IVF2 (setting [1]) was “below the threshold”; with APBA3_2, O96018 (setting [1]), “below the threshold”; with GRIP2_2, Q9C0E4 (setting [1]), “below the threshold”; with LIMK1, P53667 (setting [1]), “below the threshold”; with MAGI1_3, Q96QZ7 (setting [1]) it was “below the threshold”; with MAGI1_4, Q96QZ7 (setting [1]), 3.75. Besides, the pKd result with MAGI3_3, Q5TCQ9 (setting [1]) is “below the threshold”; in the assay with MPDZ_3, O75970 (setting [1]), “below the threshold”; with MPP5, Q8N3R9 (setting [1]), 4.01; with NHERF2_1, Q15599 (setting [1]), “below the threshold”; with PARD6B, Q9BYG5 (setting [1]), “below the threshold”; with PARD6G, Q9BYG4 (setting [1]) it was “below the threshold”. Moreover, the pKd entry with PDZD2_3, O15018 (setting [1]) was “below the threshold”; in the assay with PDZD8, Q8NEN9 (setting [1]), “below the threshold”; with PDZD9, Q8IXQ8 (setting [1]), 3.94; with PDZRN3_2, Q9UPQ7 (setting [1]), “below the threshold”; with PREX1_1, Q8TCU6 (setting [1]), “below the threshold”; with PREX2_2, Q70Z35 (setting [1]), “below the threshold”. The pKd entry in the assay with SCRIB_4, Q14160 (setting [1]) is “below the threshold”; in the assay with SHANK2, Q9UPX8 (setting [1]), “below the threshold”; in the assay with SHANK3, Q9BYB0 (setting [1]), 3.83; with SHROOM2, Q13796 (setting [1]), “below the threshold”; with SNTA1, Q13424 (setting [1]) it was “below the threshold”.

B2: ATP2B4, P23634 (peptide)
chain: SSLQSLETSV
Regarding B2, the pKd result in the assay with AHNAK2, Q8IVF2 (setting [2]) was “below the threshold”; with APBA3_2, O96018 (setting [2]), 4.21; with GRIP2_2, Q9C0E4 (setting [2]), “below the threshold”; with LIMK1, P53667 (setting [2]), “below the threshold”; in the assay with MAGI1_3, Q96QZ7 (setting [2]), 4.44; with MAGI1_4, Q96QZ7 (setting [2]), “below the threshold”. For the same molecule, the pKd entry with MAGI3_3, Q5TCQ9 (setting [2]) is reported as “below the threshold”; with MPDZ_3, O75970 (setting [2]), “below the threshold”; with MPP5, Q8N3R9 (setting [2]) it was “below the threshold”; in the assay with NHERF2_1, Q15599 (setting [2]), “below the threshold”; with PARD6B, Q9BYG5 (setting [2]) it was “below the threshold”; with PARD6G, Q9BYG4 (setting [2]), “below the threshold”. The pKd entry with PDZD2_3, O15018 (setting [2]) is on record as “below the threshold”; with PDZD8, Q8NEN9 (setting [2]) it was “below the threshold”; in the assay with PDZD9, Q8IXQ8 (setting [2]), “below the threshold”; with PDZRN3_2, Q9UPQ7 (setting [2]), “below the threshold”; with PREX1_1, Q8TCU6 (setting [2]), “below the threshold”; with PREX2_2, Q70Z35 (setting [2]), “below the threshold”. Moreover, the pKd in the assay with SCRIB_4, Q14160 (setting [2]) is 4.38; with SHANK2, Q9UPX8 (setting [2]), “below the threshold”; with SHANK3, Q9BYB0 (setting [2]), “below the threshold”; with SHROOM2, Q13796 (setting [2]) it was “below the threshold”; with SNTA1, Q13424 (setting [2]), 4.91.

B3: HPV73-E6, Q82005 (peptide)
chain: SGSRPSATVV
As for B3, the pKd result was “below the threshold” with AHNAK2, Q8IVF2 (setting [2]); “below the threshold” with APBA3_2, O96018 (setting [2]); “below the threshold” in the assay with GRIP2_2, Q9C0E4 (setting [2]); “below the threshold” with LIMK1, P53667 (setting [2]); “below the threshold” in the assay with MAGI1_3, Q96QZ7 (setting [2]); “below the threshold” with MAGI1_4, Q96QZ7 (setting [2]). For the same molecule, the pKd entry is “below the threshold” with MAGI3_3, Q5TCQ9 (setting [2]); “below the threshold” with MPDZ_3, O75970 (setting [2]); “below the threshold” with MPP5, Q8N3R9 (setting [2]); “below the threshold” with NHERF2_1, Q15599 (setting [2]); “below the threshold” with PARD6B, Q9BYG5 (setting [2]); “below the threshold” with PARD6G, Q9BYG4 (setting [2]). Also, the pKd entry with PDZD2_3, O15018 (setting [2]) was “below the threshold”; with PDZD8, Q8NEN9 (setting [2]) it was 4.04; with PDZD9, Q8IXQ8 (setting [2]), “below the threshold”; in the assay with PDZRN3_2, Q9UPQ7 (setting [2]) it was “below the threshold”; in the assay with PREX1_1, Q8TCU6 (setting [2]), “below the threshold”; with PREX2_2, Q70Z35 (setting [2]), “below the threshold”. Moreover, the pKd entry with SCRIB_4, Q14160 (setting [2]) is “below the threshold”; with SHANK2, Q9UPX8 (setting [2]), “below the threshold”; with SHANK3, Q9BYB0 (setting [2]) it was “below the threshold”; with SHROOM2, Q13796 (setting [2]) it was “below the threshold”; in the assay with SNTA1, Q13424 (setting [2]), 3.54.

B4: FRMPD4, Q14CM0 (peptide)
chain: RLPKIKETTV
As to B4, the pKd result with AHNAK2, Q8IVF2 (setting [2]) is “below the threshold”; in the assay with APBA3_2, O96018 (setting [2]) it was 4.47; in the assay with GRIP2_2, Q9C0E4 (setting [2]), “below the threshold”; in the assay with LIMK1, P53667 (setting [2]) it was 4.48; in the assay with MAGI1_3, Q96QZ7 (setting [2]), 4.82; with MAGI1_4, Q96QZ7 (setting [2]), “below the threshold”. Further, the pKd result in the assay with MAGI3_3, Q5TCQ9 (setting [2]) is listed as “below the threshold”; with MPDZ_3, O75970 (setting [2]), “below the threshold”; with MPP5, Q8N3R9 (setting [2]), “below the threshold”; in the assay with NHERF2_1, Q15599 (setting [2]), “below the threshold”; with PARD6B, Q9BYG5 (setting [2]), “below the threshold”; in the assay with PARD6G, Q9BYG4 (setting [2]), “below the threshold”. The pKd result is “below the threshold” in the assay with PDZD2_3, O15018 (setting [2]); “below the threshold” with PDZD8, Q8NEN9 (setting [2]); “below the threshold” with PDZD9, Q8IXQ8 (setting [2]); “below the threshold” with PDZRN3_2, Q9UPQ7 (setting [2]); 4.75 with PREX1_1, Q8TCU6 (setting [2]); 4.25 with PREX2_2, Q70Z35 (setting [2]). Further, the pKd was 4.85 with SCRIB_4, Q14160 (setting [2]); “below the threshold” with SHANK2, Q9UPX8 (setting [2]); “below the threshold” with SHANK3, Q9BYB0 (setting [2]); “below the threshold” with SHROOM2, Q13796 (setting [2]); 6.66 with SNTA1, Q13424 (setting [2]).
